In publication PMC10127515, “Biocatalytic Synthesis of Homochiral 2-Hydroxy-4-butyrolactone Derivatives by Tandem Aldol Addition and Carbonyl Reduction” (ACS Catalysis, 2023):

Experiments:
[1] = target: T1, KPREcoli (ketopantoate reductase from E. coli) (Escherichia coli, UniProt P0A9J4); assay: NADPH oxidation at […] nm, continuous; type: biochemical; conditions: NADPH 0.16 mM; 50 mM Tris-HCl pH 8.0; 30 °C; substrate inhibition
T1 construct: gene panE; recombinant wild type; tags and purification only in the supplement
T1 sequence (P0A9J4 1-303): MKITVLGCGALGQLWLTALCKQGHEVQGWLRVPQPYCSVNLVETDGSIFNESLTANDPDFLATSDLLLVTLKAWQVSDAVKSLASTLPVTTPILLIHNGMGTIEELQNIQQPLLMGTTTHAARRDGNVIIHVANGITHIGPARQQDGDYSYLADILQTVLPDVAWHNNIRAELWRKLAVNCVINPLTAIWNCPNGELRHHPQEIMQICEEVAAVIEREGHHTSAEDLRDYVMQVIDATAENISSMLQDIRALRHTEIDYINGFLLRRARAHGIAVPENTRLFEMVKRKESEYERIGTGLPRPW

purified protein [2] = substrate: C=CC[C@@H](CO)C(=O)C(=O)O; assay: purified protein; type: biochemical, Escherichia coli; conditions: NADPH 0.16 mM, 50 mM Tris-HCl pH 8.0, 30 °C
purified protein [3] = substrate: C=CC[C@H](CO)C(=O)C(=O)O; assay: purified protein; type: biochemical, Escherichia coli; conditions: NADPH 0.16 mM, 50 mM Tris-HCl pH 8.0, 30 °C
purified protein [4] = substrate: CC(C)(CO)C(=O)C(=O)O; assay: purified protein; type: biochemical, Escherichia coli; conditions: NADPH 0.16 mM, 50 mM Tris-HCl pH 8.0, 30 °C
purified protein [5] = substrate: CC(C)[C@@H](CO)C(=O)C(=O)O; assay: purified protein; type: biochemical, Escherichia coli; conditions: NADPH 0.16 mM, 50 mM Tris-HCl pH 8.0, 30 °C
purified protein [6] = substrate: CC[C@@H](CO)C(=O)C(=O)O; assay: purified protein; type: biochemical, Escherichia coli; conditions: NADPH 0.16 mM, 50 mM Tris-HCl pH 8.0, 30 °C
purified protein [7] = substrate: CC[C@H](CO)C(=O)C(=O)O; assay: purified protein; type: biochemical, Escherichia coli; conditions: NADPH 0.16 mM, 50 mM Tris-HCl pH 8.0, 30 °C
purified protein [8] = substrate: COCC[C@H](CO)C(=O)C(=O)O; assay: purified protein; type: biochemical, Escherichia coli; conditions: NADPH 0.16 mM, 50 mM Tris-HCl pH 8.0, 30 °C
purified protein [9] = substrate: C[C@@H](CO)C(=O)C(=O)O; assay: purified protein; type: biochemical, Escherichia coli; conditions: NADPH 0.16 mM, 50 mM Tris-HCl pH 8.0, 30 °C
purified protein [10] = substrate: C[C@H](CO)C(=O)C(=O)O; assay: purified protein; type: biochemical, Escherichia coli; conditions: NADPH 0.16 mM, 50 mM Tris-HCl pH 8.0, 30 °C
purified protein [11] = substrate: O=C(O)C(=O)C1(CO)CCC1; assay: purified protein; type: biochemical, Escherichia coli; conditions: NADPH 0.16 mM, 50 mM Tris-HCl pH 8.0, 30 °C
purified protein [12] = substrate: O=C(O)C(=O)C1(CO)CCCC1; assay: purified protein; type: biochemical, Escherichia coli; conditions: NADPH 0.16 mM, 50 mM Tris-HCl pH 8.0, 30 °C
purified protein [13] = substrate: O=C(O)C(=O)CCO; assay: purified protein; type: biochemical, Escherichia coli; conditions: NADPH 0.16 mM, 50 mM Tris-HCl pH 8.0, 30 °C
purified protein [14] = substrate: CC[C@@H](CO)C(=O)C(=O)O; assay: purified protein; type: biochemical, Pseudomonas syringae group genomosp. 3; conditions: NADPH 0.16 mM, 50 mM Tris-HCl pH 8.0, 30 °C
purified protein [15] = substrate: C[C@@H](CO)C(=O)C(=O)O; assay: purified protein; type: biochemical, Pseudomonas syringae group genomosp. 3; conditions: NADPH 0.16 mM, 50 mM Tris-HCl pH 8.0, 30 °C
purified protein [16] = substrate: C[C@H](CO)C(=O)C(=O)O; assay: purified protein; type: biochemical, Pseudomonas syringae group genomosp. 3; conditions: NADPH 0.16 mM, 50 mM Tris-HCl pH 8.0, 30 °C
purified protein [17] = substrate: O=C(O)C(=O)CCO; assay: purified protein; type: biochemical, Pseudomonas syringae group genomosp. 3; conditions: NADPH 0.16 mM, 50 mM Tris-HCl pH 8.0, 30 °C
purified protein [18] = substrate: O=C(O)C(=O)C[C@@H](O)CO; assay: purified protein; type: biochemical, Pseudomonas syringae group genomosp. 3; conditions: NADPH 0.16 mM, 50 mM Tris-HCl pH 8.0, 30 °C

For `O=C(O)C(=O)C1(CO)CCCC1` [3l], the “KPREcoli ^b / ksi^app” value [1] was 28 ± 4 mM.

`O=C(O)C(=O)C1(CO)CCC1` [3k] was tested, and the “KPREcoli ^b / ksi^app” value [1] was 6.6 ± 1.5 mM.

For `CC(C)(CO)C(=O)C(=O)O` [3j, ketopantoate], the “KPREcoli ^b / ksi^app” value [1] was 3.9 ± 1.3 mM.

B1: KPREcoli (ketopantoate reductase from E. coli) (Escherichia coli K-12) (protein)
chain: T1 sequence (P0A9J4 1-303)
notes: recombinant wild type; tags and purification only in the supplement
B1 gave a Km (purified protein [2]) of 9.5 ± 1.7 mM, a kcat (purified protein [2]) of 89 ± 6 min⁻¹ and a kcat/Km (purified protein [2]) of 157 M⁻¹ s⁻¹. It also gave a Km (purified protein [3]) of 9.5 ± 1.5 mM, a kcat (purified protein [3]) of 90 ± 5 min⁻¹ and a kcat/Km (purified protein [3]) of 157 M⁻¹ s⁻¹. The Km (purified protein [4]) was 0.4 ± 0.2 mM, the kcat (purified protein [4]) was 4457 ± 813 min⁻¹ and the kcat/Km (purified protein [4]) was 179000 ± 76500 M⁻¹ s⁻¹. It also gave a Km (purified protein [5]) of 13 ± 2 mM, a kcat (purified protein [5]) of 1021 ± 69 min⁻¹ and a kcat/Km (purified protein [5]) of 1280 M⁻¹ s⁻¹. For the same molecule, the Km (purified protein [6]) was 3.0 ± 0.5 mM, the kcat (purified protein [6]) was 926 ± 37 min⁻¹ and the kcat/Km (purified protein [6]) was 5230 M⁻¹ s⁻¹. The Km (purified protein [7]) was 7 ± 1 mM, the kcat (purified protein [7]) was 700 ± 34 min⁻¹ and the kcat/Km (purified protein [7]) was 1770 M⁻¹ s⁻¹. It also gave a Km (purified protein [8]) of 18 ± 3 mM, a kcat (purified protein [8]) of 5.9 ± 0.5 min⁻¹ and a kcat/Km (purified protein [8]) of 5.67 M⁻¹ s⁻¹. For the same molecule, the Km (purified protein [9]) was 12.9 ± 1.4 mM, the kcat (purified protein [9]) was 348 ± 15 min⁻¹ and the kcat/Km (purified protein [9]) was 450 M⁻¹ s⁻¹. It also gave a Km (purified protein [10]) of 4.8 ± 0.4 mM, a kcat (purified protein [10]) of 5350 ± 138 min⁻¹ and a kcat/Km (purified protein [10]) of 18500 M⁻¹ s⁻¹. It also gave a Km (purified protein [11]) of 1.5 ± 0.5 mM, a kcat (purified protein [11]) of 6791 ± 1022 min⁻¹ and a kcat/Km (purified protein [11]) of 73800 M⁻¹ s⁻¹. For the same molecule, the Km (purified protein [12]) was 0.2 ± 0.1 mM, the kcat (purified protein [12]) was 1166 ± 67 min⁻¹ and the kcat/Km (purified protein [12]) was 92800 M⁻¹ s⁻¹. For the same molecule, the Km (purified protein [13]) was 4.9 ± 1.2 mM, the kcat (purified protein [13]) was 7.1 ± 0.5 min⁻¹ and the kcat/Km (purified protein [13]) was 25 M⁻¹ s⁻¹.

B2: DpkAPsyrin (Δ1-piperidine-2-carboxylate/Δ1-pyrroline-2-carboxylate reductase) (Pseudomonas syringae pv. tomato) (protein)
chain: MSASHADQPTQTVSYPQLIDLLRRIFVVHGTSPEVADVLAENCASAQRDGSHSHGIFRIPGYLSSLASGWVDGKAVPVVEDVGAAFVRVDACNGFAQPALAAARSLLIDKARSAGVAILAIRGSHHFAALWPDVEPFAEQGLVALSMVNSMTCVVPHGARQPLFGTNPIAFGAPRAGGEPIVFDLATSAIAHGDVQIAAREGRLLPAGMGVDRDGLPTQEPRAILDGGALLPFGGHKGSALSMMVELLAAGLTGGNFSFEFDWSKHPGAQTPWTGQLLIVIDPDKGAGQHFAQRSEELVRQLHGVGQERLPGDRRYLERARSMAHGIVIAQADLERLQELAGH
notes: as for B1
B2 gave a Km (purified protein [14]) of 14 ± 2 mM, a kcat (purified protein [14]) of 0.23 ± 0.01 min⁻¹ and a kcat/Km (purified protein [14]) of 0.267 M⁻¹ s⁻¹. The Km (purified protein [15]) was 19 ± 4 mM, the kcat (purified protein [15]) was 1.1 ± 0.1 min⁻¹ and the kcat/Km (purified protein [15]) was 0.967 M⁻¹ s⁻¹. It also gave a Km (purified protein [16]) of 7.5 ± 1.9 mM, a kcat (purified protein [16]) of 0.0024 ± 0.0002 min⁻¹ and a Km (purified protein [17]) of 33 ± 7 mM. The kcat (purified protein [17]) was 1.7 ± 0.2 min⁻¹, the kcat/Km (purified protein [17]) was 0.867 M⁻¹ s⁻¹ and the Km (purified protein [18]) was 11 ± 1 mM. For the same molecule, the kcat (purified protein [18]) was 3.00 ± 0.02 min⁻¹ and the kcat/Km (purified protein [18]) was 4.67 M⁻¹ s⁻¹.
